Results reported in the supplement of paper PMC10065799, “High-throughput profiling of sequence recognition by tyrosine kinases and SH2 domains using bacterial peptide display” (eLife, 2023).

Assays:
[1] = biological target: Fyn (UniProt P06241); experiment: phosphorylation enrichment, bacterial display (enrichment ratio); higher = better substrate or ligand; peptides without Tyr show the background
[2] = biological target: MERTK (UniProt Q12866); experiment: as above
[3] = biological target: EPHB1 (UniProt P54762); experiment: as above
Sequence of EPHB1 (P54762 whole entry, looked up): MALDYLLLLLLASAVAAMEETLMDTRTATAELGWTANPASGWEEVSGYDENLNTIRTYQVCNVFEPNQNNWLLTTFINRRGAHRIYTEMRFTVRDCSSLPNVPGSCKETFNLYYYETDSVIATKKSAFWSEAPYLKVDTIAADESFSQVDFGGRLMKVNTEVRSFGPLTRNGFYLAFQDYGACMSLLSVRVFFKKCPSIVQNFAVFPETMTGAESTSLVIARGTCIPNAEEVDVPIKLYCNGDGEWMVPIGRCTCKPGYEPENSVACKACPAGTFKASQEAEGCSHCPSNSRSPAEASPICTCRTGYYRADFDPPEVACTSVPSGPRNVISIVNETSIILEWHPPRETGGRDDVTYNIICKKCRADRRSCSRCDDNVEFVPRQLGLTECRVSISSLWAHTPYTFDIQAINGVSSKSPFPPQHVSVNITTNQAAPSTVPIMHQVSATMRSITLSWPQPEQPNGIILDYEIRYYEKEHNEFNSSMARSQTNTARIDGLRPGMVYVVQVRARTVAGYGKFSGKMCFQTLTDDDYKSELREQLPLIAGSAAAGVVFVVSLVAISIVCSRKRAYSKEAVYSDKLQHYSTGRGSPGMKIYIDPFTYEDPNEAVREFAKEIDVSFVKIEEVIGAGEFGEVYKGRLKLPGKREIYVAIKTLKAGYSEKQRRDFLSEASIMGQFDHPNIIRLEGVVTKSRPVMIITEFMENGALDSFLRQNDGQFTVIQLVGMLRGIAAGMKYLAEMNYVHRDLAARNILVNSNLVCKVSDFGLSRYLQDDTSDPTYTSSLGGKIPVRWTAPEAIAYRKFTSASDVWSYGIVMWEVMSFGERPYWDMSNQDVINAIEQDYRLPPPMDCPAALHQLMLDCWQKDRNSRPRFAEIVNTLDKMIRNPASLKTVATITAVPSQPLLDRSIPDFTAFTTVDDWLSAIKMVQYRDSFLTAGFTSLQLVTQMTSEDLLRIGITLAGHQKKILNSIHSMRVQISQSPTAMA

[4] = tested on: Fer (mouse); experiment: as above
[5] = biological target: EPHB2 (UniProt P29323); experiment: as above
Sequence of EPHB2 (P29323 whole entry, looked up): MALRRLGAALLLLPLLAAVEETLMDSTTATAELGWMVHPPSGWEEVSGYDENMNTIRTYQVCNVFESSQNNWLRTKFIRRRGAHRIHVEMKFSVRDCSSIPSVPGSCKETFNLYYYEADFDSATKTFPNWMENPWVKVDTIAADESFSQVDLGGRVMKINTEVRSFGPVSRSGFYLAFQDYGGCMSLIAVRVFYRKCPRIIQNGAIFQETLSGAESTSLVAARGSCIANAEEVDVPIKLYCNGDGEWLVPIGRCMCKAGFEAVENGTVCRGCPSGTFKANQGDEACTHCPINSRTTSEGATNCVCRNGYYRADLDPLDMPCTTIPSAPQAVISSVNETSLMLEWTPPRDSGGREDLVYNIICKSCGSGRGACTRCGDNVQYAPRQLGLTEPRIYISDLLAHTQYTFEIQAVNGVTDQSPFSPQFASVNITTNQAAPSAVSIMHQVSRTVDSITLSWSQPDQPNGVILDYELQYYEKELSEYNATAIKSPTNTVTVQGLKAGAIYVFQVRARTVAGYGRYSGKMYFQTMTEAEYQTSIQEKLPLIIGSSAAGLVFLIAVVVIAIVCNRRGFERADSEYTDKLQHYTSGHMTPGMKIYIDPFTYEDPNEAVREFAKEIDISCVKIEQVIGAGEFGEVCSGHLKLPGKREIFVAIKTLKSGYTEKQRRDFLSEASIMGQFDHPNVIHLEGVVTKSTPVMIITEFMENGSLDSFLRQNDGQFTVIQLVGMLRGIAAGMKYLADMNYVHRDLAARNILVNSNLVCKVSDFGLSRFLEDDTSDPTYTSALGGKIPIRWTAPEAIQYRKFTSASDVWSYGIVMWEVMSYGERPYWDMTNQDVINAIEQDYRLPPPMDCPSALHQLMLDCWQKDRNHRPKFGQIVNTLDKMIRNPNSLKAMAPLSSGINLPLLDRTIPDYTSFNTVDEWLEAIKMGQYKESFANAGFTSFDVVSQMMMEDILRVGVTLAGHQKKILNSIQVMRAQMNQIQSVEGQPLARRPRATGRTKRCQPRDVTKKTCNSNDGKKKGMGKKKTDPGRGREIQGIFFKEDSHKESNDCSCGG

[6] = biological target: Fes (UniProt P07332); experiment: as above
[7] = tested on: c-Abl (mouse); experiment: as above
[8] = biological target: FGFR1 (UniProt P11362); experiment: as above
[9] = tested on: c-Src; experiment: as above
[10] = biological target: Jak2 (UniProt O60674); experiment: as above
[11] = biological target: Hck (UniProt P08631); experiment: as above
[12] = tested on: AncSZ; experiment: as above
[13] = biological target: FGFR3 (UniProt P22607); experiment: as above
Sequence of FGFR3 (P22607 whole entry, looked up): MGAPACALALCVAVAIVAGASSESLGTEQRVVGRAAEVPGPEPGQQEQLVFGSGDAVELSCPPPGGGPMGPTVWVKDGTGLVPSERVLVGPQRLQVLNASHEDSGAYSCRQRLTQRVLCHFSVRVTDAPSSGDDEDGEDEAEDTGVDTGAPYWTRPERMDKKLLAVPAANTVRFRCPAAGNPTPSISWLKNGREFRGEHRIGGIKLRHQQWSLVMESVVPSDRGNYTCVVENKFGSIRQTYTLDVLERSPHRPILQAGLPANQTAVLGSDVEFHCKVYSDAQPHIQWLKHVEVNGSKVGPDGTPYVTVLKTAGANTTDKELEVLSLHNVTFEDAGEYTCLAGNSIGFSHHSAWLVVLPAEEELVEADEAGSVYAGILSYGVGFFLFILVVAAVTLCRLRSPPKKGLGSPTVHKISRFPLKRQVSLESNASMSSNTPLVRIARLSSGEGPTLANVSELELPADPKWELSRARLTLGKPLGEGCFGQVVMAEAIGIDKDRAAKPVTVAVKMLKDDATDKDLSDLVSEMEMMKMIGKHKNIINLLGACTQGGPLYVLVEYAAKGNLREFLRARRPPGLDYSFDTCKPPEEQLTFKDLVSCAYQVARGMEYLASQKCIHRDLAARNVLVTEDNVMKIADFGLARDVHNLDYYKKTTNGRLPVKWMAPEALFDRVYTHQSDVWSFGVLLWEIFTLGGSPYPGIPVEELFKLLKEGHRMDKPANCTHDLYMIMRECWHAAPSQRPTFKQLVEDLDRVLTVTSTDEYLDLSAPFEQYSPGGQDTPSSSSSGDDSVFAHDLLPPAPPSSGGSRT

[14] = biological target: Grb2 SH2 (UniProt P62993); experiment: SH2 binding enrichment of the phosphorylated peptide, bacterial display (enrichment ratio); higher = better substrate or ligand; peptides without Tyr show the background
Sequence of Grb2 SH2 (P62993 whole entry, looked up): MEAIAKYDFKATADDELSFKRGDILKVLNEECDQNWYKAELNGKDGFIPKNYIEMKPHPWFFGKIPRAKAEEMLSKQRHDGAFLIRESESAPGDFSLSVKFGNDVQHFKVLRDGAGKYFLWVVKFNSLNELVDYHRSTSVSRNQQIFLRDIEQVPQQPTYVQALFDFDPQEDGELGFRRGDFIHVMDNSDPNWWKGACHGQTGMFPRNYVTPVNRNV

[15] = biological target: c-Src SH2; experiment: as above
[16] = biological target: SHP2-C SH2; experiment: as above
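Throughout, for SH2 binding enrichment of the phosphorylated peptide, bacterial display: peptide library displayed on the E. coli surface as eCPX fusions, selected cells deep-sequenced, score is each peptide's frequency after selection divided by its frequency in the input.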
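Throughout, for phosphorylation enrichment, bacterial display: 11-residue human phosphosite peptides and single-mutation variants displayed on the E. coli surface, counted by deep sequencing, each peptide's frequency after selection divided by its frequency in the unselected input library; frequency after pTyr selection over input frequency; kinase dosed for 20-30% of maximal phosphorylation in three min.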

Sequence of MERTK (Q12866 whole entry, looked up): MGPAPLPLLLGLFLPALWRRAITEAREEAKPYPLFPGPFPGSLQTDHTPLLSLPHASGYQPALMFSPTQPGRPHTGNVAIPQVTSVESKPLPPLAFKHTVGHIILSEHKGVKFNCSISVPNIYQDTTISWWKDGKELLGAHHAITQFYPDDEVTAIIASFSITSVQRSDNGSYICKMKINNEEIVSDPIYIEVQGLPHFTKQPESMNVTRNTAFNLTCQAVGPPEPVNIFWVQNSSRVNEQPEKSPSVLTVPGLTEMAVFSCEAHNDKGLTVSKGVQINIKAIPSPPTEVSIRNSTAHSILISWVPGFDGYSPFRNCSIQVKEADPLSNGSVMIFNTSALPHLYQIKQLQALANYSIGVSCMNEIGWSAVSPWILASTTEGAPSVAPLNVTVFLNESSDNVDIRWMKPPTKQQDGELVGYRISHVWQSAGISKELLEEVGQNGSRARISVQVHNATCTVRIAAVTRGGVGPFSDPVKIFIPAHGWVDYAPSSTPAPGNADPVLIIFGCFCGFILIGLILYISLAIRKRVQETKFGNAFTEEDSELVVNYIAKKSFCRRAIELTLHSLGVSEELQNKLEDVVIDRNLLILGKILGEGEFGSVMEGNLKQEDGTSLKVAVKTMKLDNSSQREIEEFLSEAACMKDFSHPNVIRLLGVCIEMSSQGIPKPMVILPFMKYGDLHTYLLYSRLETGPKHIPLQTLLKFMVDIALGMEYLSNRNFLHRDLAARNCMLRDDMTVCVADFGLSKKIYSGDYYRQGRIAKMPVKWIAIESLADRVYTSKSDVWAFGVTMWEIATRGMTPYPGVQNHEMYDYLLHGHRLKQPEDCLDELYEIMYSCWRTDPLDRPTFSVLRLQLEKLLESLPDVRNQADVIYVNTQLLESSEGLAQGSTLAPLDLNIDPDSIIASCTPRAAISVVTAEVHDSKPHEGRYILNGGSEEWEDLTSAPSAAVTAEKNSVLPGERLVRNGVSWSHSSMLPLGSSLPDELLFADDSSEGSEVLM
Sequence of Fyn (P06241 whole entry, looked up): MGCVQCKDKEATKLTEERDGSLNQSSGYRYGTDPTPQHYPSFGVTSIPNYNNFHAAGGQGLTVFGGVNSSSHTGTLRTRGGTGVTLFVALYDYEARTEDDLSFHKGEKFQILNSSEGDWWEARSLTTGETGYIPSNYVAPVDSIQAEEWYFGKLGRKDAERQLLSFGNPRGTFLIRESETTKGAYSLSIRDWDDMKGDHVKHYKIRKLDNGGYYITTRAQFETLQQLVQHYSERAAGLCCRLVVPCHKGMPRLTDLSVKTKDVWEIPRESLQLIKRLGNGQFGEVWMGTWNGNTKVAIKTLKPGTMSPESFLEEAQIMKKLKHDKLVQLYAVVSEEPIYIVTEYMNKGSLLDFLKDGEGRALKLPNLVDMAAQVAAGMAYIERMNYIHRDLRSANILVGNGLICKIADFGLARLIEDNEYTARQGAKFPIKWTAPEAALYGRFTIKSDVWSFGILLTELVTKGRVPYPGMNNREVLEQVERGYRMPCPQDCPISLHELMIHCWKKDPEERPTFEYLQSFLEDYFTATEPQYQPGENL

Sequence | phosphorylation enrichment [1] | phosphorylation enrichment [2] | phosphorylation enrichment [3] | phosphorylation enrichment [4] | phosphorylation enrichment [5] | phosphorylation enrichment [6] | phosphorylation enrichment [7] | phosphorylation enrichment [8] | phosphorylation enrichment [9] | phosphorylation enrichment [10] | phosphorylation enrichment [11] | phosphorylation enrichment [12] | phosphorylation enrichment [13] | SH2 binding enrichment [14] | SH2 binding enrichment [15] | SH2 binding enrichment [16]
SRIWVYNHFRC [BRCA2_Y2621_W2626C_YF] | 0.547 | 0.466 | 0.638 | 0.653 | 0.672 | 1.43 | 0.976 | 0.575 | 0.483 | 1.19 | 0.543 | 1.16 | 0.937 | 0.869 | 0.558 | 0.589
DENWFYMRAAS [RPS19_Y54_T55M] | 0.43 | 0.379 | 0.718 | 0.594 | 0.654 | 1.52 | 0.869 | 0.654 | 0.384 | 1.25 | 0.485 | 1.35 | 0.933 | 0.774 | 0.481 | 0.627
IHETTYKSIMK [ACTA1_Y281_N282K] | 0.309 | 0.331 | 0.324 | 0.372 | 0.33 | 0.583 | 0.458 | 0.373 | 0.384 | 0.692 | 0.359 | 0.364 | 0.472 | 0.804 | 0.55 | 3.31
NNKKDYYDMYE [SLC26A3_Y526_K521N] | 0.792 | 0.483 | 2.03 | 0.544 | 1.52 | 1.04 | 0.537 | 8.57 | 0.591 | 0.735 | 0.728 | 1.47 | 6.01 | 0.753 | 1.57 | 0.54
ADARMCGVLPW [PLP1_Y207_Y207C] | 0.436 | 0.436 | 0.606 | 0.44 | 0.524 | 1 | 0.746 | 0.489 | 0.487 | 1.1 | 0.488 | 0.93 | 0.671 | 0.751 | 0.477 | 0.527
EFKKKYSDADI [CKAP5_Y1860_YF] | 0.459 | 0.472 | 0.303 | 0.331 | 0.565 | 0.683 | 0.464 | 0.413 | 0.334 | 0.606 | 0.408 | 0.576 | 0.476 | 0.883 | 0.487 | 0.616
EFITRYIDSLK [PSMA7_Y110_A112D_YF] | 0.526 | 0.479 | 0.425 | 0.426 | 0.493 | 0.878 | 0.483 | 0.558 | 0.456 | 0.733 | 0.501 | 0.785 | 0.639 | 0.818 | 0.552 | 0.713
GYSRHCEDGYP [CTNND1_Y217_Y217C] | 0.44 | 0.446 | 0.521 | 0.465 | 0.83 | 0.972 | 0.928 | 0.46 | 0.489 | 0.879 | 0.5 | 0.869 | 0.556 | 0.796 | 0.544 | 0.563
HCFNSYTFPRL [PAK7_Y316_S312C_YF] | 0.707 | 0.591 | 0.752 | 0.804 | 0.743 | 1.72 | 0.795 | 0.713 | 0.469 | 1.31 | 0.564 | 1.94 | 0.978 | 0.734 | 0.678 | 0.574
RGFRVYFTPDS [PTPRF_Y450_YF] | 0.4 | 0.538 | 0.583 | 0.469 | 0.749 | 1.71 | 1.2 | 0.545 | 0.714 | 1.76 | 0.542 | 1.31 | 0.877 | 1.16 | 1.2 | 0.908
KIKLNYTLPQD [NRAP_Y523_N519I] | 0.454 | 0.53 | 0.49 | 0.513 | 0.447 | 0.88 | 0.531 | 0.48 | 0.454 | 0.721 | 0.462 | 0.965 | 0.623 | 0.965 | 0.774 | 0.751
ATQDDYVLEVR [PTPRZ1_Y2179] | 0.626 | 0.492 | 0.632 | 0.497 | 0.62 | 1.23 | 0.766 | 0.552 | 0.601 | 1.08 | 0.56 | 1.45 | 0.701 | 0.856 | 0.505 | 0.719
FCIDHYLGKEM [G6PD_Y202_R198C_YF] | 0.657 | 0.375 | 0.581 | 0.633 | 0.505 | 0.901 | 0.49 | 0.397 | 0.394 | 0.63 | 0.43 | 0.725 | 0.569 | 0.836 | 0.735 | 0.969
NYADPYRQLPY [CTNND2_Y503_Q507P] | 0.501 | 6.98 | 10.1 | 0.469 | 10.7 | 0.819 | 0.847 | 4.13 | 0.827 | 0.669 | 0.847 | 0.78 | 2.33 | 0.775 | 1.25 | 0.749
GVSFIYTIDGS [DCX_Y105_R102S_YF] | 2.18 | 0.552 | 0.694 | 0.491 | 0.532 | 1.31 | 0.927 | 0.496 | 1.98 | 1.54 | 0.976 | 1.43 | 0.753 | 0.88 | 0.584 | 0.725
SKDQIYPMKLK [RANBP17_Y823] | 0.417 | 0.355 | 0.29 | 0.336 | 0.458 | 0.533 | 0.449 | 0.386 | 0.572 | 0.493 | 0.361 | 0.451 | 0.437 | 0.804 | 0.446 | 0.764
DVFRQYASLRG [GANAB_Y379_T383R] | 0.393 | 0.384 | 0.329 | 0.295 | 0.435 | 0.625 | 0.459 | 0.453 | 0.399 | 0.504 | 0.404 | 0.482 | 0.41 | 0.842 | 1.57 | 31
